Assay results published in US20110159598A1 (LES LABORATOIRES SERVIER, published 2011).
Blank lines part the entries; values can stand above or below the molecule they belong to. No end group written: not given here.

Legend:
K63 polyubiquitin chains = assay: cell-based or functional assay
[1] = molecular target: human NEMO mutant A323P, FLAG-tagged (human) (UniProt Q9Y6K9); assay: cell-based or functional assay
[2] = molecular target: the molecule itself; assay: gel filtration on Superdex 75, same elution profile as the wild-type CC2-LZ protein
[3] = molecular target: T1, CC2-LZ domain of NEMO (species and construct not stated for this assay) (Mus musculus (Mouse), UniProt O88522 251-337); assay: fluorescence polarisation, N-terminally Fluorescein- or Cy5-labelled peptide, pH 7, ambient temperature, 20 mM Tris-Acetate-MES, 200 mM KCl, 0.5% Tween 20
T1 construct: not shown: N-terminal histidine tag and vector residues from pET28
Protocol: These measurements are carried out at pH 7 and at ambient temperature in a stringent buffer corresponding to 20 mM Tris-Acetate-MES containing 200 mM potassium chloride and 0.5% Tween 20. They are carried out by fluorescence polarisation with the aid of peptides coupled at the N-terminal with the fluorophores Fluorescein or Cy5. For forming the peptide probes of the invention, the peptides can be coupled to any kind of fluorophore.

X-ray crystal structure = molecular target: the molecule itself; assay: X-ray crystal structure

inhibition of TNFα-dependent activation of the NF-κB pathway (Igκ-luciferase reporter in NEMO-deficient mouse embryo fibroblasts) [1]: 95%
Molecule: human NEMO mutant A323P, FLAG-tagged (from UniProt Q9Y6K9 1-419)

Kd [3]: 170 nM
B2: peptide PH4 (peptide)
peptide: TVAQLKAQHDIYEAEHQAVEHELEKLEEELEYIKEELEQLQREFNKLSG
modifications: also: N-terminal Fluorescein or Cy5
notes: Peptide probe designed from the crystal structure of the CC2-LZ domain

Kd [3]: 60 nM
B3: peptide P8RD (peptide)
peptide: TVAQLKAQFDIHQAEHQAVKHELEKIEEDFEYIEEQLEQLQREFNKLKSG
modifications: also: N-terminal Fluorescein or Cy5
notes: as for B2

The remaining lines, values behind:

Molecule: human NEMO mutant F312A, FLAG-tagged (from UniProt Q9Y6K9 1-419)
inhibition of TNFα-dependent activation of the NF-κB pathway (Igκ-luciferase reporter in NEMO-deficient mouse embryo fibroblasts) (K63 polyubiquitin chains): 78%

B1: human CC2-LZ domain of NEMO (Tax CC2-LZ, Met 215 to Glu 362) mutant F312A (other)
chain: MERQAASEEKRKLAQLQVAYHQLFQEYDNHIKSSVVGSERKRGMQLEDLKQQLQQAEEALVAKQEVIDKLKEEAEQHKIVMETVPVLKAQADIYKADAQAERQAREKLAEKKELLQEQLEQLQREYSKLKASCQESARIEDMRKRHVE
notes: also called CC2-LZ F312A; not shown: vector-derived tag of pET-28b (protein purified on Ni-NTA)
binding result [2]: binds

B4: CC2-LZ domain of murine NEMO (aa 251-337), N-terminal histidine tag (other)
chain: MQLEDLRQQLQQAEEALVAKQELIDKLKEEAEQHKIVMETVPVLKAQADIYKADFQAERHAREKLVEKKEYLQEQLEQLQREFNKLK
notes: Expressed in E. coli BL21-gold (DE3); Forms a parallel coiled-coil dimer in the crystal; also called CC2-LZ protein; Nemo CC2LZ; not shown: N-terminal histidine tag from plasmid pET28
binding result (X-ray crystal structure): binds
